The values below are quoted from earlier work in paper PMC11695704.

The data set addresses Clr-b (Mus musculus) (UniProt Q91V08).

Some results are limits rather than exact numbers.

UniProt Q91V08, sequence (Q91V08 whole entry): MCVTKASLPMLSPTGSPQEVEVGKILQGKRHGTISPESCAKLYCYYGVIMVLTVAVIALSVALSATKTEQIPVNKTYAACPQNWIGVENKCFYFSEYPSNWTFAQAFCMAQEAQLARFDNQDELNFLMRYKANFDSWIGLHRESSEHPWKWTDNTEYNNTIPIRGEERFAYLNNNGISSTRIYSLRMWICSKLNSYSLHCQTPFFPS

Turning to NKR-P1B (from UniProt P27812), the Kd (usually the free concentration of one partner at which half of the binding sites on the other are occupied at equilibrium, for simple one-to-one binding) is > 500 µM.
